Here are results for two molecules from patent US20060051344A1.

Assay [1] deals with monoclonal antibody AUII103-5-41a. Briefly: competitive EIA: unlabelled peptide displaces biotinylated goby urotensin II from captured antibody.
In assay [2] the target is these two hybridoma culture supernatants. Briefly: competitive EIA against biotinylated goby urotensin II.
The target of assay [3] is monoclonal antibody AUII103-5-41a. Briefly: competitive EIA; ratio of the antigen levels giving (B/B0)=0.5 (0.68 nM / 17.4 nM).
Assay [4] deals with monoclonal antibody AUII5-6-10a. The experiment in a line: competitive EIA: unlabelled peptide displaces biotinylated goby urotensin II from captured antibody.

With GPTSECFWKYCV [porcine urotensin II-1], the IC50 in assay [1] is 17.4 nM.
As to ETPDCFWKYCV [human urotensin II], the IC50 in assay [2] was 0.5 to 2 nM; in assay [1], 0.68 nM; in assay [4] it was 1.2 nM. Moreover, the human urotensin II level at (B/B0)=0.9 in assay [2] was found to be 0.2 nM. Further, the ratio of reactivity with human urotensin II to reactivity with porcine urotensin II-1 in assay [3] was determined as 0.04 time.

Broadly, the IC50 is the concentration that gives 50% inhibition. Low readings indicate greater potency, high ones weaker potency.
